Assay results published in patent publication US5847082, “Terminal complement inhibitor fusion proteins” (Alexion Pharmaceuticals, Inc., dated 1998).
Where two headings read alike, the source gives them in different places.

Tests used:
[1] = molecular target: T1, purified human complement component C9 (human, UniProt P02748)
[2] = molecular target: T2, purified human complement component C8 (human, UniProt P07357)
[3] = molecular target: T1, purified human complement component C9; experiment: cell-based or functional assay
[4] = molecular target: T2, purified human complement component C8; experiment: cell-based or functional assay

| percent dye release (Calcein AM) after complement attack, Balb/3T3 cells [1] [fold] | percent dye release (Calcein AM) after complement attack, Balb/3T3 cells [2] [fold] | percent dye release (Calcein AM) after complement attack, Balb/3T3 cells [3] [fold] | percent dye release (Calcein AM) after complement attack, Balb/3T3 cells [4] [fold] | Molecule |
| --- | --- | --- | --- | --- |
| 3 | 3 |  |  | CD59-MCP TMTCIP (transmembrane form of CD59) |
|  |  | ~3 | ~3 | native human CD59, GPI-anchored (other, glycosyl-phosphatidylinositol (GPI) anchor at the carboxyl terminus) LQCYNCPNPTADCKTAVNCSSDFDACLITKAGLQVYNKCWKFEHCNFNDVTTRLRENELTYYCCKKDLCNFNEQLENGGTSLSEKTVLLLVTPFLAAAWSLHP |
